Data: publication PMC8551079 (iScience, 2021)

Biological target: T1, glutathione S-transferase (GST)-fused ABI5 (Arabidopsis thaliana, UniProt Q9SJN0 1-442)
T1 sequence (looked up): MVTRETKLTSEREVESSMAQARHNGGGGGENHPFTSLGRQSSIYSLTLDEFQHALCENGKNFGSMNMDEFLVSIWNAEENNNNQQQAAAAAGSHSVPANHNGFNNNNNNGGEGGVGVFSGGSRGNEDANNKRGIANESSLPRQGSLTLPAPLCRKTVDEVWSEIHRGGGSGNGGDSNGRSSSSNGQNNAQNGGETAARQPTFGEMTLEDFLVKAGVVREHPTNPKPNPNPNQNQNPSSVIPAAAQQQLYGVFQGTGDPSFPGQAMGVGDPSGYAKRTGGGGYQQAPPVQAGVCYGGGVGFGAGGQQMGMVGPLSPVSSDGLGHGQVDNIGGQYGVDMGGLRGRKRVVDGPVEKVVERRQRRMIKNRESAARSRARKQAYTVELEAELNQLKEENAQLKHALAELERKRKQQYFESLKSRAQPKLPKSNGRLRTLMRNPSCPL
Test: pull-down

B1: MYB70-His (natural protein)
chain: not shown
binding result: binds
